Test results as given in patent US20230242658A1 (published 2023).
Like-named read-outs stand apart in the source and are kept apart here.

How the values were obtained:
[1] = target: T1, human 4-1BB on CHO-K1 cells (human, UniProt Q07011 24-255); assay: FACS blocking of 4-1BBL
Target sequence in this assay (Q07011 24-255): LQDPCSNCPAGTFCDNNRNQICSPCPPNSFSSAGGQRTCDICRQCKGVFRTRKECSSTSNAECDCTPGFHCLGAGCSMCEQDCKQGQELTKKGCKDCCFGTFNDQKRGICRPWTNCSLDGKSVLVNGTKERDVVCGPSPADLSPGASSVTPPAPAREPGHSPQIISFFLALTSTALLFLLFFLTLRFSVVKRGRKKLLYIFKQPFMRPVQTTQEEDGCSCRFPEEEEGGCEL

[2] = target: T1, human 4-1BB on CHO-K1 cells; assay: FACS
[3] = target: T2, cynomolgus monkey 4-1BB on CHO-K1 cells (cynomolgus monkey); assay: FACS; FIG. 12B
T2 chain: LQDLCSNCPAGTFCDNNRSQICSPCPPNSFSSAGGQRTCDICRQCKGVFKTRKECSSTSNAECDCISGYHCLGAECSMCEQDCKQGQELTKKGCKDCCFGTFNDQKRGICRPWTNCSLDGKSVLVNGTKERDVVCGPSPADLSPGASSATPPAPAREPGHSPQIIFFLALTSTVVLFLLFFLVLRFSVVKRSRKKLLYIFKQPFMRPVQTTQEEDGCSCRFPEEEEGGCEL

[4] = target: T2, cynomolgus monkey 4-1BB on CHO-K1 cells; assay: FACS; FIG. 12C
[5] = target: T1, human 4-1BB on CHO-K1 cells; assay: FACS blocking of 4-1BBL; remark: listed apart in the source
[6] = target: T1, human 4-1BB on CHO-K1 cells; assay: FACS; remark: listed apart in the source
Target sequence in this assay (Q07011 24-255): as the sequence (Q07011 24-255) above

[7] = target: T2, cynomolgus monkey 4-1BB on CHO-K1 cells; assay: FACS; FIG. 12F
[8] = target: T1, human 4-1BB on CHO-K1 cells; assay: FACS blocking of 4-1BBL; remark: listed apart in the source
Target sequence in this assay (Q07011 24-255): as the sequence (Q07011 24-255) above

[9] = target: T1, human 4-1BB on CHO-K1 cells; assay: FACS; FIG. 11M
Target sequence in this assay (Q07011 24-255): as the sequence (Q07011 24-255) above

[10] = target: T2, cynomolgus monkey 4-1BB on CHO-K1 cells; assay: FACS; FIG. 12L
[11] = target: T2, cynomolgus monkey 4-1BB on CHO-K1 cells; assay: FACS; FIG. 12D
[12] = target: T1, human 4-1BB on CHO-K1 cells; assay: FACS; FIG. 11L
Target sequence in this assay (Q07011 24-255): as the sequence (Q07011 24-255) above

[13] = target: T2, cynomolgus monkey 4-1BB on CHO-K1 cells; assay: FACS; FIG. 12K
[14] = target: T2, cynomolgus monkey 4-1BB on CHO-K1 cells; assay: FACS; FIG. 12A
[15] = target: T1, human 4-1BB on CHO-K1 cells; assay: FACS; remark: listed apart in the source
Target sequence in this assay (Q07011 24-255): as the sequence (Q07011 24-255) above

[16] = target: T1, human 4-1BB on CHO-K1 cells; assay: FACS; FIG. 11K
[17] = target: T2, cynomolgus monkey 4-1BB on CHO-K1 cells; assay: FACS; FIG. 12J

B1: PR001766 (antibody, V domains shown)
VH: EVQLLESGGGLVQPGGSLRLSCAASGFTFSSYAMSWGRQAPGKGLEWVSSISGSGGSTYYADSVKGRFTISRDNSKNTLYLQMNSLRAEDTAVYYCAKEKTGTTGDYYYDMDVWGQGTTVTVSS
IC50 [1]: 4.34 nM
EC50 [2]: 0.399 nM
EC50 [3]: 4.99 nM

B2: PR001771 (antibody, V domains shown)
VH: EVQLLESGGGLVQPGGSLRLSCAASGFTFSNYAMTWVRQPPGKGLEWVSSISGSGGSTYYADSVKGRFTISRDNSKNTLYLQMNSLRAEDTAVYYCAKEGTGTTSDYYYNVDVWGQGTTVTVSS
EC50 [4]: 3.77 nM
EC50 [2]: 0.532 nM
IC50 [5]: 21.6 nM

B3: PR001842 (antibody, V domains shown)
VH: EVQLLESGGGLVQPGGSLRLSCAASGFTFSSYAMSWGRQAPGKGLEWVSAISGSGGSTYYADSVKGRFTISRDNSKNTLYLHMNSLRAEDTAVYYCAKEKVATTGDYYYDMDVWGQGTTVTVSS
EC50 [6]: 0.537 nM
EC50 [7]: 2.29 nM

B4: PR001768 (antibody, V domains shown)
VH: EVQLLESGGGLVQPGGSLRLSCAASGFTFSNYAMTWVRQAPGKGLEWVSSISGSGDSTYYADSVKGRFTISRDNSKNTLYLQMNSLRAEDTAVYYCAKEGTGTTSDYYYNVDVWGQGTTVTVSS
EC50 [4]: 6.97 nM
EC50 [2]: 0.846 nM

B5: PR007299 (antibody, V domains shown)
VH: EVQLVESGGGLVKPGGSLRLSCAASGFTFSDYQMSWLRQAPGKGLEWVSYISSSGRTIYYADSVKGRFTISRDNAKNSVSLQMNSLRAEDTAVYYCAREGRFFPGQGTPVTVSS
IC50 [8]: 23.1 nM
EC50 [9]: 17 nM
EC50 [10]: 118 nM

B6: PR001775 (antibody, V domains shown)
VH: EVQLLESGGGLVQSGGSLRLSCAASGFTFSSYAMSWVRQAPGKGLEWVSAISGSGGSTDYADSVKGRFTISRDNSTNTLYLQMNSLRAEDTAVYYCAKERAYDYSNYVDFDYWGQGTLVTVSS
EC50 [2]: 0.477 nM
EC50 [11]: 2.66 nM
IC50 [5]: 2.4 nM

B7: PR007295 (antibody, V domains shown)
VH: EVQLVESGGGLVKPGGSLRLSCAASGFTFSDYYMSWIRQAPGKGLEWVSYISNNGSTIYYADSVKGRFTISRDNAKNSLYLQMNSLRAEDTAVYYCARVRPGGSGNYWDWFDPWGQGTMVTVSS
IC50 [8]: 16.1 nM
EC50 [12]: 18.9 nM
EC50 [13]: 11.1 nM

B8: PR007300 (antibody, V domains shown)
VH: EVQLVESGGGLVKPGGSLRLSCTTSGFTFSDYYMNWVRQAPGKGLEWVSYISNNGSTIYYADSVKGRFTISRDNAKNSLYLQMNSLRAEDTAVYYCARVRPGGSGNYWDWFDPWGQGTPVTVSS
IC50 [8]: 2.87 nM
EC50 [9]: 2.77 nM
EC50 [10]: 1.94 nM

B9: PR007297 (antibody, V domains shown)
VH: EVQLVESGGGLVKPGGSLRLSCAASGFTFSDYYMSWIRQAPGKGLEWVSYISRSGSTIYYADSVKGRFTISRDNAKNSLYLQMNSLRAEDTAVYYCARVRPGGSGNYWDWFDPWGQGTLVTVSS
IC50 [8]: 11.3 nM
EC50 [12]: 11.7 nM
EC50 [13]: 8.84 nM

B10: PR001758 (antibody, V domains shown)
VH: EVQLLESGGGLVQLGGSLRLSCAASGFTFSRYAMTWVRQAPEKGLEWVSSISGSGDDTYYGDSVKGRFTISRDNSQNTVYLQMNSLRAEDTAVYFCAKEKAGTTGDYYYNVDVWGQGTTVTVSS
IC50 [1]: 3.61 nM
EC50 [14]: 0.575 nM
EC50 [15]: 0.212 nM

B11: PR001781 (antibody, V domains shown)
VH: EVQLLESGGGLVQLGGSLRLSCAASGFTFSSYAMTWVRQAPEKGLEWVSSISGSGGNTYYADSVKGRFTISRDNSKNTLYLQMNSLRAEDTAVYYCAKERTGTTGDYYYNVDVWGQGTTVTVSS
EC50 [2]: 0.492 nM
EC50 [11]: 3.1 nM

B12: PR007292 (antibody, V domains shown)
VH: EVQLVESGGGLVKPGGSLRLSCAASGFTFSDYYMSWIRQAPGKGLEWVSYISSSGSTIDYADSVKGRFTISRDNAKNSLYLQMNSLRAEDTAVYYCAREREEVAGTLDYDNWGQGTLVTVSS
IC50 [8]: 5.37 nM
EC50 [16]: 1.81 nM
EC50 [17]: 4.88 nM

B13: PR007298 (antibody, V domains shown)
VH: EVQLVESGGGLVKPGGSLRLSCAASGFTFSDYYMSWVRQAPGKGLEWVSYISSSGSTIDYADSVKGRFTISRDNAKNSLFLEMNSLRAEDTAVYYCAREREEVAGTLDFDNWGQGTLVTVSS
IC50 [8]: 6.7 nM
EC50 [9]: 3.71 nM
EC50 [10]: 2.33 nM

B14: PR007294 (antibody, V domains shown)
VH: EVQLVESGGGLVKPGGSLRLSCVASGFTFSDYYMSWFRQAPGKGLEWVSYISGSGTTIDYADSVKGRFTISRDNAKNSLYLQMNSLRAEDTAVYYCAREREPVAGTLDFDNWGQGTLVTVSS
IC50 [8]: 6.61 nM
EC50 [16]: 1.14 nM
EC50 [17]: 1.99 nM

B15: PR007293 (antibody, V domains shown)
VH: EVQLVESGGGLVKPGGSLRLSCAASGFTFSDYYMSWFRQAPGKGLEWVSYINSSGSTIYYEYSVKGRFTISRDNAKNSLYLQMNSLRAEDTAVYYCAREREEVAGTLDFDYWGQGTLVTVSS
IC50 [8]: 11.2 nM
EC50 [16]: 2.25 nM
EC50 [17]: 2.1 nM

B16: PR001763 (antibody, V domains shown)
VH: EVQLLESGGGLVQPGGSLRLSCTASGFTFSNYAMSWVRQAPEKGLEWVSSISGSGGSTFYADSVKGRFTISRDNSKNTLYLQMNRLTAEDTAVYYCAKEGSNGTDDYHYDIDVWGQGTTVTVSS
IC50 [1]: 4.99 nM
EC50 [15]: 0.616 nM
EC50 [3]: ~0.411 nM

B17: PR001780 (antibody, V domains shown)
VH: EVQLLESGGGLIQPGGSLRLSCAASGFTFSSFAMTWVRQAPGKGLEWVSTISGSGDNTYYADSVKGRFTISRDNSKNTLYLQMNSLRAEDTAVYFCAKEDTAVASDYYYNIDVWGQGTTVTVSS
EC50 [2]: 0.708 nM
EC50 [11]: 2.99 nM
IC50 [5]: 6.33 nM

B18: PR001774 (antibody, V domains shown)
VH: EVQLVESGGGLVQPGGSLRLSCAASGFTFSSFAMTWVRQAPEKGLEWVSTISGSGDTTYYADSVKGRFTISRDSSKNTLYLQMNSLRAEDSAVYFCAKEATAMASDYYYGVDVWGQGTTVTVSS
EC50 [4]: 6.73 nM
EC50 [2]: 1.27 nM
IC50 [5]: ~2.12 nM

B19: PR001764 (antibody, V domains shown)
VH: EVQLLESGGGLVQPGGSLRLSCAASGFTFSSYAMSWVRQAPEKGLEWVSAISGGGGSTYYADSVKGRFTISRDNSKNTLYLQMDSLKAEDTAVYYCAKEGTTETDDYHYNMDVWGQGTTVTVSS
IC50 [1]: 2.79 nM
EC50 [2]: 0.249 nM
EC50 [3]: 5.33 nM

B20: PR001776 (antibody, V domains shown)
VH: EVQLLESGGGLVQPGGSLRLSCAASGFTFSSYAMSWVRQAPEKGLEWVSAISSSGGSTYYADSVKGRFTISRDNSKNTLYLQMNSLRAEDTAVYYCAKDGVTTPSYYYYYDMDVWGQGTTVTVSS
EC50 [2]: 2.43 nM
EC50 [11]: 18.1 nM
IC50 [5]: 10.9 nM

B21: PR001759 (antibody, V domains shown)
VH: EVQLLESGGGLVQPGGSLRLSCAASGFTFSSYAMSWFRQPPETGLQWVSSIGGSGGDTYYADSVKGRFTISRDNSKNTLYLQMNSLRAEDTAVYYCAKEGSNGTDDNYYDVDVWGQGTTVTVSS
IC50 [1]: 2.31 nM
EC50 [14]: 0.788 nM
EC50 [15]: 0.274 nM

B22: PR001760 (antibody, V domains shown)
VH: EVQLVESGGGVVQPGGSLRLSCAASGFTFSNYAMTWVRQAPEKGLEWVSSISGSGVSTYYADSVKGRFTISRDNSKNTLYLQMTRLTAEDTAVYFCAKEGSSETDDHYYNVDVWGQGTTVTVSS
IC50 [1]: 2.05 nM
EC50 [14]: 0.443 nM
EC50 [15]: 0.198 nM
